# US8143228B2, “Agents capable of downregulating an MSF-A dependent HIF-1α and use thereof in cancer treatment” (Medical Research Fund of Tel Aviv Sourasky Medical Center, priority 2004, dated 2012)
# B1: MSF-A: myeloid/lymphoid leukemia septin-like fusion protein A (SEQ ID NO:3), over-expressed from the p3xFlag-MSF-A vector (protein, listed as Homo sapiens)
# chain: MKKSYSGGTRTSSGRLRRLGDSSGPALKRSFEVEEVETPNSTPPRRVQTPLLRATVASSTQKFQDLGVKNSEPSARHVDSLSQRSPKASLRRVELSGPKAAEPVSRRTELSIDISSKQVENAGAIGPSRFGLKRAEVLGHKTPEPAPRRTEITIVKPQESAHRRMEPPASKVPEVPTAPATDAAPKRVEIQMPKPAEAPTAPSPAQTLENSEPAPVSQLQSRLEPKPQPPVAEATPRSQEATEAAPSCVGDMADTPRDAGLKQAPASRNEKAPVDFGYVGIDSILEQMRRKAMKQGFEFNIMVVGQSGLGKSTLINTLFKSKISRKSVQPTSEERIPKTIEIKSITHDIEEKGVRMKLTVIDTPGFGDHINNENCWQPIMKFINDQYEKYLQEEVNINRKKRIPDTRVHCCLYFIPATGHSLRPLDIEFMKRLSKVVNIVPVIAKADTLTLEERVHFKQRITADLLSNGIDVYPQKEFDEDSEDRLVNEKFREMIPFAVVGSDHEYQVNGKRILGRKTKWGTIEVENTTHCEFAYLRDLLIRTHMQNIKDITSSIHFEAYRVKRLNEGSSAMANGVEEKEPEAPEM
# modifications: 3xFlag tag
# What was measured:
# Assay type in all cases: cell-based
# [1] = system: HIF-1α transcriptional activity; assay: HRE-dependent luciferase reporter gene assay in HEK 293 cells; details: transient transfection, hypoxia, compared with empty vector
# Method: FIG. 7 is a graph depicting luciferase activity (a reporter of HIF-1α transcriptional activation) as a function of the presence or absence of the N-terminus of the MSF-A protein. HEK 293 cells were co-transfected with 0.1 μg HRE-dependent luciferase reporter [pBI-GL V6L (Post, D. E., and Van Meir, E. G. 2001. Generation of bidirectional hypoxia/HIF-responsive expression vectors to target gene expression to hypoxic cells. Gene Ther 8, 1801-1807. Mabjeesh, N. J., et al., 2002, Geldanamycin induces degradation of hypoxia-inducible factor 1 alpha protein via the proteasome pathway in prostate cancer cells. Cancer Res 62, 2478-2482) and the wild type (WT) MSF-A (p3xFlag-MSF-A), ΔN-MSF-A (ΔN) (p3xFlag-ΔN-MSF-A) or empty vector (EV) (p3xFlag-cmv-25) constructs as follows: Experiment (Exp.) No. 1=1 μg EV; Exp. No. 2=0.5 μg EV and 0.5 μg WT; Exp. No. 3-1 μg WT; Exp. No. 4=0.5 μg EV and 0.5 μg ΔN; Exp. No. 5=1 μg ΔN. After 24 hours of transfection, cells were subjected to normoxia or hypoxia for overnight and then analyzed for luciferase luminescence assay. Luciferase activity is presented as relative units per μg protein in each experiment. Columns represent means; bars represent SD; n=3; *, p<0.05 compared to hypoxia of EV. Note the significant decrease of luciferase activity in cells grown under hypoxia and transfected with the N-terminus truncated form (ΔN) of MSF-A as compared with cells transfected with the wild-type form of MSF-A. Also note that under normoxia, when the luciferase activity is hardly detected, no significant difference is obtained.
# FIG. 8 is a graph depicting luciferase activity (a reporter of HIF-1α transcriptional activation) as a function of the presence or absence of the GTP binding site of MSF-A (ΔG). HEK 293 cells were cotransfected with HRE-dependent luciferase reporter and the expression vector encoding wild-type MSF-A (WT) (p3xFlag-MSF-A), the deleted GTP binding site form of MSF-A (ΔG) (p3xFlag-ΔG-MSF-A) or empty vector (EV) (p3xFlag-cmv-25) and then were exposed to hypoxia conditions as described in the description of FIG. 4, hereinabove. Luciferase activity is presented as relative units per μg protein in each experiment. Columns represent means; bars represent SD; n=3. Note the non-significant effect of the ΔG-MSF-A on HIF-1α activity.
# Reporter gene assay and luminescence measurements—HRE-dependent luciferase activity was performed using the pBI-GL construct (pBI-GL V6L) containing six tandem copies of the VEGF hypoxia response element as previously described (Mabjeesh et al., 2002; Post and Van Meir, 2001). […] Luciferase enzymatic activity was measured using the commercial kit TROPIX (Bedford, Mass.) in the Galaxy luminometer (BMG Labtechnologies LUMIstar) following the manufacturer's instructions. […]
# [2] = system: PC-3 cells; assay: Plating efficiency assay; details: PC-3-MSF-A cells; PC-3-Neo 16.8%, p<0.001
# Method: Plating Efficiency assay—PC-3-Neo and PC-3-MSF-A cells were cultured in 100 mm-diameter plate (1000 cells/plate) and incubated to allow colony formation. The cultures were monitored on a daily basis and when colonies were visible (approximately after 2 weeks) cells were fixed and stained with 90% EtOH, 5% Acetic acid, 0.01% Coomassie brilliant blue (Sigma-Aldrich, Saint Louis, Mo.). Plating was done in triplicates. Colonies containing ≧20 cells were counted. Plating efficiency (%) was calculated as number of colonies formed/number of cells plated×100.
# [3] = system: PC-3 cells; assay: Cell proliferation assay with XTT reagent; details: PC-3-MSF-A vs PC-3-Neo cells, normoxia and hypoxia
# Method: FIG. 13 is a graph depicting the effect of MSF-A over-expression on cell proliferation. PC-3-Neo and PC-3-MSF-A cells were grown under normoxic and hypoxic conditions for the indicated time and then analyzed for proliferation using XTT assay. Proliferation was expressed as increase in % of the initial O.D. measured on the next day of seeding which was considered 100%. Growth media were not changed until the end of the experiment.
# Cell proliferation assay with XTT reagent—For cell proliferation assay, PC-3-Neo and PC-3-MSF-A cells were seeded in 96 well-plates (1000 cells/well in 200 μLI) using a 3-bis-(2-methoxy-4-nitro-5 sulfenyl)-(2H)-tetrazolium-5-carboxanilide (XTT) kit (Biological Industries Ltd. Kibbutz Beit Haemek, Israel). Wells filled with media served as a control. On the next day, the cells were cultured either under normoxic or hypoxic conditions. XTT reagent was added at days 0, 2, 4 and 6 following the manufacturer's instructions. The absorbance of the samples was measured using a microplate reader at a wavelength of 450 nm using Elisa reader 680 (Bio-rad, Hercules, Calif.). All experiments were performed in triplicate.
# [4] = system: PC-3 cells; assay: Soft agar foci assay; details: PC-3-MSF-A vs PC-3-Neo cells, 4 weeks, normoxia
# Method: FIGS. 14a-g are microscopic photographs (FIGS. 14a-f) and a graph depicting the effect of MSF-A over-expression on colony formation and growth (FIG. 14g). PC-3-Neo and PC-3-MSF-A cells were grown for 4 weeks in soft agar under normoxic conditions. Colonies were observed and counted. FIGS. 14a, c, and e—representative colonies from each plate seeded with PC-3-Neo cells; FIGS. 14b, d, and f—representative colonies from each plate seeded with PC-3-MSF-A cells; FIG. 14g—quantitative analysis of colony number from each cell type. Columns=means; bars=SD; n=3.
# Soft Agar Foci assay—The assay tests the anchorage-independent growth of the cell in soft agar. Suspensions of PC-3-Neo or PC-3-MSF-A cells in 0.22% soft agar were poured on 35 mm-diameter plate (5000 cells/plate) pre-cast with 0.5% soft agar and were cultured for 4 weeks. Colonies (≧20 cells) were counted.
molecule,measurement,setting,value
B1,HIF-1α transcriptional activity (luciferase reporter),[1],induced HIF-1α activity
same,plating efficiency,[2],49.3%
same,proliferation rate (XTT),[3],higher
same,colony formation in soft agar,[4],significantly more colonies
